The source of these data is US20110263454A1, “Methods of Identifying Functional Characteristics of Promoters, Transcription Modifying Proteins and Transcription Modulating Agents” (Salk Institute for Biological Studies, priority 2008, published 2011).

One assay deals with MCP-1 promoter. Nature of the assay: NHR-promoter luciferase screen, MCP-1 promoter. Format: cell-based. To be noted: for Normalized Luc. act., normalized to control / Luc. act., normalized to lacZ: MCP-1 promoter reporter; for Normalized Luc. act., normalized to control: HR without or with its ligand, relative to control; for Luc. act., normalized to lacZ: hormone receptor (HR) without or with its ligand; for mMCP-1 promoter reporter activity: transcription factor +/- ligand, control = 1.00. Put shortly: (§1)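 CV-1 cells were co-transfected with 50 ng NHR (homodimer or NHR/RXR heterodimer), 100 ng promoter-luciferase construct and 50 ng LacZ. Luciferase was normalized to LacZ and to a no-NHR/no-ligand control.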

In a further assay the test system is hPPARg2 promoter. Nature of the assay: NHR-promoter luciferase screen, hPPARg2 promoter. The format is cell-based, human. To be noted: for Luc. act., normalized to lacZ / Normalized Luc. act., normalized to control: PPARG2 promoter, hormone receptor with or without its ligand; for Normalized Luc. act., normalized to control: relative to control; for Results of assays of transcription factor (+/- ligand) with hPPARg2: Table 6d, luciferase activity relative to control (control = 1.00). Put shortly:
as §1

The test system of another assay is hG6PD promoter. Nature of the assay: NHR-promoter luciferase screen, hG6PD promoter. Format: cell-based, human. To be noted: for Luc. act., normalized to lacZ / Normalized Luc. act., normalized to control: G6PD promoter reporter, co-transfected HR, without or with its ligand; for Normalized Luc. act., normalized to control: relative to control; for luciferase activity normalized to lacZ activity and to a control, hG6PD: hG6PD promoter-luciferase, CV-1 cells, NHR +/- ligand, control = 1.00. Put shortly: as §1

Another assay concerns mUCP1 promoter. Nature of the assay: NHR-promoter luciferase screen, mUCP1 promoter. Format: cell-based, mouse. To be noted: for Luc. act., normalized to lacZ / Normalized Luc. act., normalized to control: mUCP1 promoter reporter, co-transfected HR, with or without its ligand; for Normalized Luc. act., normalized to control: relative to control; for luciferase activity normalized to lacZ activity and to a control, mUCP!: mUCP! promoter-luciferase, CV-1 cells, NHR +/- ligand, control = 1.00. Put shortly:
as §1

The subject of another assay is mGhrelin promoter. Nature of the assay: NHR-promoter luciferase screen, mGhrelin promoter. The format is cell-based, mouse. Particulars: for Luc. act., normalized to lacZ / Normalized Luc. act., normalized to control: Table 8, mGhrelin; for Results of assays of transcription factor (+/- ligand) with mGhrelin: Table 6d, luciferase activity relative to control (control = 1.00). In a few lines: as §1

The test system of another assay is hIFNg promoter. Nature of the assay: NHR-promoter luciferase screen, hIFNg promoter. Particulars: for Luc. act., normalized to lacZ / Normalized Luc. act., normalized to control: IFNg promoter, HR component without or with ligand; for hIFNg promoter reporter activity: transcription factor +/- ligand, control = 1.00. Format: cell-based, human. Put shortly:
as §1

B1: PR: Progesterone Receptor (NR3C3), cDNA driver (protein, UniProt P06401 1-933, looked up)
Progesterone receptor: MTELKAKGPRAPHVAGGPPSPEVGSPLLCRPAAGPFPGSQTSDTLPEVSAIPISLDGLLFPRPCQGQDPSDEKTQDQQSLSDVEGAYSRAEATRGAGGSSSSPPEKDSGLLDSVLDTLLAPSGPGQSQPSPPACEVTSSWCLFGPELPEDPPAAPATQRVLSPLMSRSGCKVGDSSGTAAAHKVLPRGLSPARQLLLPASESPHWSGAPVKPSPQAAAVEVEEEDGSESEESAGPLLKGKPRALGGAAAGGGAAAVPPGAAAGGVALVPKEDSRFSAPRVALVEQDAPMAPGRSPLATTVMDFIHVPILPLNHALLAARTRQLLEDESYDGGAGAASAFAPPRSSPCASSTPVAVGDFPDCAYPPDAEPKDDAYPLYSDFQPPALKIKEEEEGAEASARSPRSYLVAGANPAAFPDFPLGPPPPLPPRATPSRPGEAAVTAAPASASVSSASSSGSTLECILYKAEGAPPQQGPFAPPPCKAPGASGCLLPRDGLPSTSASAAAAGAAPALYPALGLNGLPQLGYQAAVLKEGLPQVYPPYLNYLRPDSEASQSPQYSFESLPQKICLICGDEASGCHYGVLTCGSCKVFFKRAMEGQHNYLCAGRNDCIVDKIRRKNCPACRLRKCCQAGMVLGGRKFKKFNKVRVVRALDAVALPQPVGVPNESQALSQRFTFSPGQDIQLIPPLINLLMSIEPDVIYAGHDNTKPDTSSSLLTSLNQLGERQLLSVVKWSKSLPGFRNLHIDDQITLIQYSWMSLMVFGLGWRSYKHVSGQMLYFAPDLILNEQRMKESSFYSLCLTMWQIPQEFVKLQVSQEEFLCMKVLLLLNTIPLEGLRSQTQFEEMRSSYIRELIKAIGLRQKGVVSSSQRFYQLTKLLDNLHDLVKQLHLYCLNTFIQSRALSVEFPEMMSEVIAAQLPKILAGMVKPLLFHKK
As to B1, in the assay on MCP-1 promoter, the “Normalized Luc. act., normalized to control” value was 1.2; the “Luc. act., normalized to lacZ” value was found to be 128.0; the “mMCP-1 promoter reporter activity” value is listed as 1.20. Also, in the assay on hPPARg2 promoter, the “Luc. act., normalized to lacZ” value was determined as 1.8; the “Normalized Luc. act., normalized to control” value is on record as 0.9; the “Results of assays of transcription factor (+/- ligand) with hPPARg2” value (“Results of assays … with hPPARg2” for short) turned out to be 0.88. For the same molecule, in the assay with hG6PD promoter, the “Luc. act., normalized to lacZ” value worked out at 45.4; the “Normalized Luc. act., normalized to control” value is 1.2; the “luciferase activity normalized to lacZ activity and to a control, hG6PD” value (shortened to “luciferase activity normalized … hG6PD”) is listed as 1.22. Also, in the assay on mUCP1 promoter, the “Luc. act., normalized to lacZ” value is 5.4; the “Normalized Luc. act., normalized to control” value was found to be 1.2; the “luciferase activity normalized to lacZ activity and to a control, mUCP!” value (from here on “luciferase activity normalized … mUCP!”) is listed as 1.21. Further, in the assay on mGhrelin promoter, the “Luc. act., normalized to lacZ” value is 53.6; the “Normalized Luc. act., normalized to control” value is 1.0; the “Results of assays of transcription factor (+/- ligand) with mGhrelin” value (“Results of assays … with mGhrelin” for short) stood at 1.03. Also, in the assay with hIFNg promoter, the “Luc. act., normalized to lacZ” value was 22.6; the “Normalized Luc. act., normalized to control” value was found to be 1.4; the “hIFNg promoter reporter activity” value is given as 1.42.

B2: hMR: Mineralocorticoid Receptor (NR3C2, MR), cDNA driver (protein, UniProt P08235 1-984, looked up)
Mineralocorticoid receptor: METKGYHSLPEGLDMERRWGQVSQAVERSSLGPTERTDENNYMEIVNVSCVSGAIPNNSTQGSSKEKQELLPCLQQDNNRPGILTSDIKTELESKELSATVAESMGLYMDSVRDADYSYEQQNQQGSMSPAKIYQNVEQLVKFYKGNGHRPSTLSCVNTPLRSFMSDSGSSVNGGVMRAVVKSPIMCHEKSPSVCSPLNMTSSVCSPAGINSVSSTTASFGSFPVHSPITQGTPLTCSPNVENRGSRSHSPAHASNVGSPLSSPLSSMKSSISSPPSHCSVKSPVSSPNNVTLRSSVSSPANINNSRCSVSSPSNTNNRSTLSSPAASTVGSICSPVNNAFSYTASGTSAGSSTLRDVVPSPDTQEKGAQEVPFPKTEEVESAISNGVTGQLNIVQYIKPEPDGAFSSSCLGGNSKINSDSSFSVPIKQESTKHSCSGTSFKGNPTVNPFPFMDGSYFSFMDDKDYYSLSGILGPPVPGFDGNCEGSGFPVGIKQEPDDGSYYPEASIPSSAIVGVNSGGQSFHYRIGAQGTISLSRSARDQSFQHLSSFPPVNTLVESWKSHGDLSSRRSDGYPVLEYIPENVSSSTLRSVSTGSSRPSKICLVCGDEASGCHYGVVTCGSCKVFFKRAVEGQHNYLCAGRNDCIIDKIRRKNCPACRLQKCLQAGMNLGARKSKKLGKLKGIHEEQPQQQQPPPPPPPPQSPEEGTTYIAPAKEPSVNTALVPQLSTISRALTPSPVMVLENIEPEIVYAGYDSSKPDTAENLLSTLNRLAGKQMIQVVKWAKVLPGFKNLPLEDQITLIQYSWMCLSSFALSWRSYKHTNSQFLYFAPDLVFNEEKMHQSAMYELCQGMHQISLQFVRLQLTFEEYTIMKVLLLLSTIPKDGLKSQAAFEEMRTNYIKELRKMVTKCPNNSGQSWQRFYQLTKLLDSMHDLVSDLLEFCFYTFRESHALKVEFPAMLVEIISDQLPKVESGNAKPLYFHRK
On to B2, for which, in the assay on MCP-1 promoter, the “Normalized Luc. act., normalized to control” value is reported as 0.0 and the “mMCP-1 promoter reporter activity” value is given as 0.00. Moreover, in the assay on hPPARg2 promoter, the “Luc. act., normalized to lacZ” value is listed as 1.0; the “Normalized Luc. act., normalized to control” value is given as 0.5; the “Results of assays … with hPPARg2” value turned out to be 0.51. Further, in the assay with hG6PD promoter, the “Luc. act., normalized to lacZ” value was 35.2; the “Normalized Luc. act., normalized to control” value amounted to 0.9; the “luciferase activity normalized … hG6PD” value was 0.94. For the same molecule, in the assay on mUCP1 promoter, the “Luc. act., normalized to lacZ” value was 2.1; the “Normalized Luc. act., normalized to control” value is listed as 0.5; the “luciferase activity normalized … mUCP!” value came out at 0.48. For the same molecule, in the assay with mGhrelin promoter, the “Luc. act., normalized to lacZ” value is 49.7; the “Normalized Luc. act., normalized to control” value is recorded as 1.0; the “Results of assays … with mGhrelin” value worked out at 0.95. For the same molecule, in the assay on hIFNg promoter, the “Luc. act., normalized to lacZ” value is given as 10.4; the “Normalized Luc. act., normalized to control” value is given as 0.7; the “hIFNg promoter reporter activity” value is given as 0.65.

B3: CTF3: COUP-TF3 (NR2F6), cDNA driver (protein, UniProt P10588 1-404, looked up)
Nuclear receptor subfamily 2 …: MAMVTGGWGGPGGDTNGVDKAGGYPRAAEDDSASPPGAASDAEPGDEERPGLQVDCVVCGDKSSGKHYGVFTCEGCKSFFKRSIRRNLSYTCRSNRDCQIDQHHRNQCQYCRLKKCFRVGMRKEAVQRGRIPHSLPGAVAASSGSPPGSALAAVASGGDLFPGQPVSELIAQLLRAEPYPAAAGRFGAGGGAAGAVLGIDNVCELAARLLFSTVEWARHAPFFPELPVADQVALLRLSWSELFVLNAAQAALPLHTAPLLAAAGLHAAPMAAERAVAFMDQVRAFQEQVDKLGRLQVDSAEYGCLKAIALFTPDACGLSDPAHVESLQEKAQVALTEYVRAQYPSQPQRFGRLLLRLPALRAVPASLISQLFFMRLVGKTPIETLIRDMLLSGSTFNWPYGSGQ
For the molecule B3, in the assay with MCP-1 promoter, the “Normalized Luc. act., normalized to control” value was determined as 1.6; the “Luc. act., normalized to lacZ” value came out at 175.5; the “mMCP-1 promoter reporter activity” value is reported as 1.64. In the assay with hPPARg2 promoter, the “Luc. act., normalized to lacZ” value came out at 1.7; the “Normalized Luc. act., normalized to control” value is on record as 0.8; the “Results of assays … with hPPARg2” value is 0.85. Also, in the assay on hG6PD promoter, the “Luc. act., normalized to lacZ” value came out at 32.5; the “Normalized Luc. act., normalized to control” value was determined as 0.9; the “luciferase activity normalized … hG6PD” value came to 0.87. Moreover, in the assay on mUCP1 promoter, the “Luc. act., normalized to lacZ” value is 1.9; the “Normalized Luc. act., normalized to control” value is 0.4; the “luciferase activity normalized … mUCP!” value is 0.42. In addition, in the assay with mGhrelin promoter, the “Luc. act., normalized to lacZ” value is 68.4; the “Normalized Luc. act., normalized to control” value was 1.3; the “Results of assays … with mGhrelin” value worked out at 1.31. Moreover, in the assay on hIFNg promoter, the “Luc. act., normalized to lacZ” value is 28.5; the “Normalized Luc. act., normalized to control” value turned out to be 1.8; the “hIFNg promoter reporter activity” value is 1.79.
